Reference: article PMC3377666 (2012)

B1: DNA polymerase delta core (protein)
chain 1: MDGKRRPGPGPGVPPKRARGGLWDDDDAPRPSQFEEDLALMEEMEAEHRLQEQEEEELQSVLEGVADGQVPPSAIDPRWLRPTPPALDPQTEPLIFQQLEIDHYVGPAQPVPGGPPPSRGSVPVLRAFGVTDEGFSVCCHIHGFAPYFYTPAPPGFGPEHMGDLQRELNLAISRDSRGGRELTGPAVLAVELCSRESMFGYHGHGPSPFLRITVALPRLVAPARRLLEQGIRVAGLGTPSFAPYEANVDFEIRFMVDTDIVGCNWLELPAGKYALRLKEKATQCQLEADVLWSDVVSHPPEGPWQRIAPLRVLSFDIECAGRKGIFPEPERDPVIQICSLGLRWGEPEPFLRLALTLRPCAPILGAKVQSYEKEEDLLQAWSTFIRIMDPDVITGYNIQNFDLPYLISRAQTLKVQTFPFLGRVAGLCSNIRDSSFQSKQTGRRDTKVVSMVGRVQMDMLQVLLREYKLRSYTLNAVSFHFLGEQKEDVQHSIITDLQNGNDQTRRRLAVYCLKDAYLPLRLLERLMVLVNAVEMARVTGVPLSYLLSRGQQVKVVSQLLRQAMHEGLLMPVVKSEGGEDYTGATVIEPLKGYYDVPIATLDFSSLYPSIMMAHNLCYTTLLRPGTAQKLGLTEDQFIRTPTGDEFVKTSVRKGLLPQILENLLSARKRAKAELAKETDPLRRQVLDGRQLALKVSANSVYGFTGAQVGKLPCLEISQSVTGFGRQMIEKTKQLVESKYTVENGYSTSAKVVYGDTDSVMCRFGVSSVAEAMALGREAADWVSGHFPSPIRLEFEKVYFPYLLISKKRYAGLLFSSRPDAHDRMDCKGLEAVRRDNCPLVANLVTASLRRLLIDRDPEGAVAHAQDVISDLLCNRIDISQLVITKELTRAASDYAGKQAHVELAERMRKRDPGSAPSLGDRVPYVIISAAKGVAAYMKSEDPLFVLEHSLPIDTQYYLEQQLAKPLLRIFEPILGEGRAEAVLLRGDHTRCKTVLTGKVGGLLAFAKRRNCCIGCRTVLSHQGAVCEFCQPRESELYQKEVSHLNALEERFSRLWTQCQRCQGSLHEDVICTSRDCPIFYMRKKVRKDLEDQEQLLRRFGPPGPEAW
chain 2: not shown
B2: DNA polymerase delta core+p12 (protein)
chain 1: B1 chain 1
chain 2: not shown
chain 3: MGRKRLITDSYPVVKRREGPAGHSKGELAPELGEEPQPRDEEEAELELLRQFDLAWQYGPCTGITRLQRWCRAKQMGLEPPPEVWQVLKTHPGDPRFQCSLWHLYPL

Molecular target: PCNA (Homo sapiens, UniProt P12004)
Sequence (P12004 whole entry): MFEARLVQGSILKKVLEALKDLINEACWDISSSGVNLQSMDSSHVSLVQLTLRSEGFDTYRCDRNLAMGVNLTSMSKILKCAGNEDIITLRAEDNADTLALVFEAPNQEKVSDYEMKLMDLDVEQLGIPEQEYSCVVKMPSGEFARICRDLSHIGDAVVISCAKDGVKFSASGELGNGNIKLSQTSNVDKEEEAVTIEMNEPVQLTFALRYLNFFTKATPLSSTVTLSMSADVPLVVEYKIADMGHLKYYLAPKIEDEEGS
Experiment: enzyme activity assay

Binder | Kd [nM]
B1 | 73
B2 | 8.7
